In the test the target is T1, WT SARS-CoV-2 RBD protein (SARS-CoV-2, Wuhan-Hu-1 (WT), UniProt P0DTC2).
T1 construct: also called WT RBD
Kind of test: ELISA. To be noted: both partners purified. Background: An ELISA detects its analyte on a solid surface through an enzyme-linked reagent.

B1: neutralizing MAb 2H2 (antibody, V domains shown)
VH: QVQLKQSGPSLVQPSQSLSITCTVSGFSLTSYGVHWVRQSPGKGLEWLGVMWRGGNTDYNAAFMSRLSITKDNSKSQVFFKMNSLQTDDTAIYYCAKNGGAHAMDFWGQGTSVTVSS
VL: NIVLTQSPASLAVSLGQRATISCRASESVDSYGNSFLHWYQQKPGQPPKLLIYLASNLESGVPARFSGSGSRTDFTLTIDPVEADDAATYYCQQNNEDPFTFGSGTKLEIK
Consider B1, for which the binding result was “binds”.

B2: neutralizing MAb 3C1 (antibody, V domains shown)
VH: EVQLQESGPSLVKPSQTLSLTCSVTGDSITNGYWNWIRKFPGNKLEYMGYISYSGSTYYSPSLKSRISITRDTSKNQHYLQLNSVTSEDTATYYCASDYHGSKYYFDYWGQGTTLTVSS
VL: DIVMTQSHKFMSTSVGHRVSITCKASQDVGNDVAWYQQKPGQSPKLLIYWASTRHTGVPDRFTGSGSGTDFTLTISNVQSEDLADYFCQQYNRYPYTFGGGTKLEIK
Take B2: the binding result is on record as “binds”.

For the origin of these results see publication PMC8688474 (Nature Communications, 2021).
